Measured values from publication PMC4022642.

Target: GST fusion of human TRESK cytoplasmic loop (amino acids 174-280) (human) (UniProt Q7Z418)
Experiment: pull-down; GST-TRESK 174-280 on glutathione agarose; mouse brain cytosol; four pairs of independent assays; anti-tubulin β3 Western blot with densitometry (ImageJ)

Chain of UniProt Q7Z418 (Q7Z418 other isoform, or with tags, fused parts or gaps): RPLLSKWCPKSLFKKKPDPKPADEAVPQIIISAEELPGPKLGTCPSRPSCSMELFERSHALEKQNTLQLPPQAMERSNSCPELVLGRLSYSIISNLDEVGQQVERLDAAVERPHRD

For “tubulin (mouse brain cytosol) (from UniProt P05213 1-451; Q9ERD7 1-450) (complex)”, the densitometry counts of the anti-tubulin β3 immunoblot was 20500 counts.
